Reference: the nanobody polyreactivity screen of Harvey et al. (2022)

Assay: yeast display, Sf9 membrane polyspecificity reagent, FACS + sequencing; frameworks hold sequencing errors
Outline: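 In a synthetic yeast display library (Saccharomyces cerevisiae BJ5465), nanobody expression was induced with galactose for 36–48 hours. FACS gates were set low and high (top ~1%) using anti-HA fluorescence for expression and streptavidin fluorescence for binding of the Sf9 membrane reagent. Each polyreactivity label is drawn from the gate of origin.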

| Sequence | polyreactivity (PSR sort gate) |
| --- | --- |
| QVQLVESGGGLVQAGGSLRLSCAASGRIFLTYAMGWYRQAPGKERELVAAITDNGGDTYYADSVKGRFTISRDNAKNTVYLQMNSLKPEDTAVYYCAKTTLSVAGLDFDYWGQGTQVTVSS | low polyreactivity |
| QVQLVESGGGLVQAGGSLRLSCAASGFTFRFYAMGWYRQAPGKERELVAAISSSSSSTYYADSVKGRFTISRDNAKNTVYLQMNSLKPEDTAVYYCNAGGYTRGDYWGQGTQVTVSS | high polyreactivity |
| QVQLVESGGGVVQAGGSLRLSCAASGITYGRNTMGWYIHAPGKERELVAAIDSGGNTYADSVKGRFTISRDNAKNTVYLQMNSLKPEDTAVYYGAATFIQVVVNVQLYDYDYWGQGTQVNVSS | low polyreactivity |
| QVQLVESGGGLVQAGGSLRLSCAASGSTFYIYAMGWYRPAPGKERELVAAIDWTGSTYYADSVKGRFTISRDNAKNTVNLQMNSLKPEDTAVYYCAAYYDLEDDSYRLNSWGQGTQVTVSS | high polyreactivity |
| QVQLVESGGGLVQAGGSLRLSCAASGSTFEPYAMGWYRQAPGKEREFVAAISGSGGSTYYADSVKGRFTISRDNAKNTVYLQMNSLKPEDTAVSYCAKDSFPWVDDDYWGQATQVTVSS | low polyreactivity |
| QVQLVESGGGLVQAGGSLRLSCAASGFTFYRYAMGWYRQAPGKERELVATISASGGSTYYADSVKGRFTISRDNAKNTVYLQMNSLKPEDTAVYYCAVRYKSWYGFNYWGQGTQVTVSS | high polyreactivity |
| QVQLVESGGGLVQAGGSLRLSCAASGNNFRRYAMGWSRQAPGKERELVAAITWRGGNTYYADSVKGRFTISRDIAKNTVYLQRNSLKPEDTAVYYCNRVYRQRLGRDYWGQGTQVTVSS | high polyreactivity |
| QVHLVESGGGLVQAGGSLRLSCAASGSIFPFNAMGWYRQAPGKERELVAAIRWSDGRTYYADSVKGRFTISRDNAKNTVYLQMNSLKPEDTAVYYCAAKSYWGQGTQVTVSS | high polyreactivity |
| QVQLVESGGGLVQAGGSLRLSCAASGRICPKKGMGWYRQAPWKERELVAAITSGTSTYYADSVKGRFTISRDNAKNTVYLQMNSLKPEDTAVYYCNAVHARYRCQGDYWGQGTQVTVSS | low polyreactivity |
| QVQLVESGGGLVQAGGSLRFSCAASGRIIEQNAMGWYIQAPGKERELVATITRRGGRTYYADSVKGRFTISRDNAKNTVYLQMNSLKPEDTAVYYCNQVSYARGYDYWGQGTQVTVSS | high polyreactivity |
| QVQLVESGGGLVQAGGRLRLSCAASGYIFSYYAMAWYRQAPGKERELVASITSSGGSTYYADSVKGRFTISRDNAKNTVYLQMNSLKPEVTAVSYCAAYSLYGYDYWGQGTQVTVSS | low polyreactivity |
| QVQHVESGAGLVQAGGSLRLRCAASGIIFYYYAMGWYRQAPGKERELVASISRSGTDTYYADSVKGRFTISRDNAKYTVYLQMNSLIPEDTAVYDCAAKLYSKRTGARMNYWGQGTQVTVSS | high polyreactivity |
| QVQLVESGGGLVQAGGSLRLSCAASGFILEPNAMGWYRQAPGKERELVATISFSGGGTYYADSVKGRFTISRDNAKNNVYLQMNSLKPEDTAVYYCAAQGRDSDYVDFDYWGQGTQVTVSS | high polyreactivity |
| QVQLVESGGGLVQAGGSLRLSCAASGRTFLIYAMGWYRQAPGKEREFVATITYSGGSTYYADSVKGRFTISRDNAKNTVYLQMNSLKPEDTAVYYCAAVRYGYRRSGPYNYSYDYWGQGTQVTVSS | high polyreactivity |
| QVLLQESGGGLVQAGVSLRLSCAASGNIFSAGGMGWYRQAPVNERELVAGIGTGTSTNYADSVKGRFTISRDNAKNTVYLQMNSLKPEDTAVYYCAAAYYSGLSHWYWGQGTQVTVSS | low polyreactivity |
| QVQLVESGGGLVQAGGSLRLSCAASGRTFGYYAMGWYRQAAGKDREFVAAITAGRGSTYYPDSVKGRFTISRDNAKNTVYLQMNSLKPEETAVYYCNAVPPGRTPVKGNFYYWGQGTQVTVSS | high polyreactivity |
| QVQLVESGGGLVQAGGSLRLSCAASGFTFKSYAMGWYRQAPGKEREFVASISRRGGSTYYADSVKGRFTISRDNAKNTVYLQMNSLKPEDTAVYYCATDRPNWVFVDYNYWGQGTQVTVSS | high polyreactivity |
| QVQLVESVGGLVQAGGSLRLSCAASGSIFFTYTMGWYRQAPGKERELVAAISSGGITNYADSVKGRFTISRDNAKKTVYFQMNSLKPEDTAVYYCAVDGGEFSSYGYWGQGTQVTVSS | low polyreactivity |
| QVQLVESGGGLVQAGGSLRLSCAASGRIIGGNAMGWYRPAPGKEREFVAAIRASGGSTHYADSVKGRFTISRDNAKNTVYLQMNSLKPEDTAVYYCNTYRARLGTTFIDYDYWGQGTQVTVSS | high polyreactivity |
| QVQLVDSGGGLVQAGGSLRLSCAASGRTFYYYAMGWSRQEPGKEREFDADISGRGGTTYYADSVKGRFTISRDNAKKTVYLLMNSLKPEDTAVYYCAARSVSTLRYTSRKLRYDYWGQGTQVSVSS | high polyreactivity |
| QVQLVESGGGLVQAGCSLRLSCAASGSTVYYKAMGWYREAPGKERELVAAITSGGRTKYADSVKGRFTISRDNAKNTVYLQMNSLKPEDTAVYYCNTYNRRSGTLPKPYDYWGQGTQVTVSS | high polyreactivity |
| QVQLVQSGGGLVQAGGSLRLSCAASGRTFYYNAMGWYRQAPGKERELVAAITSTGGSTYYADSVKGRFTISRDNAKNTVYLQMNSLKPEDTAVYYCNTLGYTQTRGLDYWGQGTQVTVSS | low polyreactivity |

| Sequence | polyreactivity (PSR sort gate) |
| --- | --- |
| QVQLVESVGGLVQAGGSLRLSCAASGSIFDYNGMGRYRQAPGKERELVATITLSTARTYYADSVKGRFTISRDNAKNTVYLQMNSLKPEDTAVYYCATRYPKFRRRNYWGQGTQVTVSS | high polyreactivity |
| QVQLVESRGGLVQAGGSLRLSCAASGTTINFYPMGWYRQAPGKERELVAAIRVSSGSTYYADSVKGRFTISRDNAKNNVYLQMNSLKPEDTAVYYCAAFLKDRSPRDGYDYWGQGSQVTVSS | high polyreactivity |
| QVQLVESGGGLVQAGGSLRLSCAASGRSFCTYAMGSYRQAPGKERELVAAITSGGSTNYADSVKGRFTISRDNAKNTVYLQMNSLKPEDTAVYYCAAVEYLRESDYWGQCTQVTVSS | low polyreactivity |
| QVQLVESGGGLVQAGGSLRLSCAASGRTFSYYAMGWYRQAPGKERELVAAISSGGSTNYADSVKGRFTISRDNAKNTVYLQMNSLKPEDPAFYYCANSSIWGSGRVRWVTYYFWGQGTQVTVSS | low polyreactivity |
| QVQLVESGGGLVQAGGSLRLSCAASGGILTKYAMGWYRQAPGKEREFVAAISWRGGTTYYADSVKGRFTISRDNAKNTVYLQMNSLKPEDSAVYYCAADILWYFGQEYDYWGKGTQVTVSS | low polyreactivity |
| QLQLVESGGGLVQAGGSLRLSCAASGSTFALYAMGWYRQAPGKERELVAAITSDGSTKYADSVKGRFTISRDNAKNTVYLQMNSLKPEDTAVYYCNTEYYYPGIPYDYWGQGTQVTVSS | high polyreactivity |
| QVQLVESGGGLVQAGGSLRLSCAASGFIFYKYAMGWYRQAPGKEREFVAAITWSGGNTYYADSVKGRFTISRDNAKNTVYLQMNSLKPEDTAVYYCAARDSKWGQGTQVTVSS | low polyreactivity |
| QVQLVESGGGLVQAGGSLRLTCADSGNILLFNAMGWYRQAPGKERELVATINQSGGRTYYADSVKGRFTISRDNAKNTVYLQMNSLKPEDTAVYYCNAERHPYYYWHTQRLDYWGQGTQVTVSS | low polyreactivity |
| QVQLVESGGGIVQAGGSLRLRCAASGSIISVYAMGWYRQAPGKERELLDGITISGGRTYYADSVKGRFTISRDYAKNTVYLQMNSMKPEDTAVYYCAADWVYPPGLNDSVHFGEYDYWGQGSQVTVSS | low polyreactivity |
| QDQLVESCGGLVQAGGSLRLICAASGITFRYNAMGWYRQAPGKERELVAAITFSGGSTYYADSVKGRFTISRDNAKNTVYLQMISLKPEDTAVYYCAARKARPPFPHPFDYYWGQGTQVTVSS | low polyreactivity |
| QVQLVESGGGLVQAGGSLRLSCAASGFTSGYNVMGWYRQEPGKERELVAAISWRGTSTYYADSVKGRFTISRDNAKNTVYLQMNSLKPEDTAVYYCAADRYWRLSGYEYWGQGTQVTVSS | high polyreactivity |
| QVQLVESGGGLVQAGGSLRLSCAASGRTFVRYAMGWYRQAPGKERELVARITSRGTSTYYADSVKGRFTISRDNAKNTVYLQMNSLKPEDTAVYYCNKVSTFREKSRYDYWGQGTQVTVSS | low polyreactivity |
| QVQLVESGGGLVQAGGSLRLSCAASGITFYRYAMGWYRQAPGKERELVAAISKRGGTTYYADSVKGRFTISRDNAKNTVYLQMNSLKPEDTAVYYCNKAKTAYRGQYDYWGQGTQVTVSS | high polyreactivity |
| QVQLVESGGGLVQAGGSLRLSCPASGRIFVLGWYRQAPGKERELVAAINDSGDITYYADSVKGRFSISRDNAKYTVYLQMNSLKPEDTAVYYCAASAAYYGFYKSVTYDYWGQGSQVTVSS | low polyreactivity |
| QVQLVESGGGLVQAGGSLRLSCAASGFTFSRYAMGWYRQAPGKERELVAAIDDGGSTYYADSVKGRFTISRDNAKNTVYLQMNSLKPEDTAVYYCNARGYGTLNVRRERMDYWGQGTQVTVSS | high polyreactivity |
| QVQLVESGGGLVQAGGSLRLSCAASGYIYDYNAMGWYRQAPGKERELVAAITFRDGSTYADSVKGRFTISRDNGKNTVYLQMNSLKPEDTAVYYCNRRSQVHSHSKHDDWGQGTQVTVSS | low polyreactivity |
| QVQLVESGGGLVQAGGSLRLSCAASGRTFSNYVMGWYRQAPAKERELVAAITYSGGSTYYADSVKGRFTISRDNATNTVYLQMNSLKPEDTAVYYCARRWGGRGYYYWGQGTQVTVSS | high polyreactivity |
| QVQLVESGGGLVQAGGSLRLSCSASGSIFDRYTIGWYRQAPWKERDLVAAITFGGGSTYYADSVKVRFTISRDNAKNTDYLQRNSLKPADTAVYYCAKQRHGKLGHILGYNYWGQGTQVTVSS | low polyreactivity |
| QVQLVESGGGLVQAGGSLRLSCAASGRIFARYAMGWYRQAPGKERELVAAITKSVGSTYYADSVKGRFTISRDNAKNTVYLQMNSLKPEDTAVYYCNAVARGYGYDYWGQGTQVTVSS | high polyreactivity |
| QVQLVESGGGLVQAGGSLRLSCAASGYIFLGNAMGWYRQAPGKERELVAAISRSGGSTYYADSVKGRFTISRDNAQNTVYLQMNSLKPEDTAVYYCNRDRQKIGYTYKYDYWGQGTQVTVSS | high polyreactivity |
| QVQLVESVGGLVQAGGSLRLSCAASGFTFHLYAMGWYRPAPGKERELDAAISQSGDSTYYADSVKGRFTISRDNAKNTVYLQMNSLKPEDTAVYYVNADNDGVVWSYPFDFDYWGQGTQVTVSS | low polyreactivity |
